Laboratory results taken from patent US20250222112A1.

Biological target: soluble ectodomain from HSV-2 glycoprotein D (amino acids 26-331) containing a 6-histidine tag (herpes simplex virus 2 (HSV-2)) (UniProt Q69467)
Experiment: ELISA, gD-6H coated at 15 µg/ml, HSV8 in 5-fold dilutions from 10 µg/ml, anti-human IgG-HRP

Sequence of UniProt Q69467 (Q69467 26-331, tags left off): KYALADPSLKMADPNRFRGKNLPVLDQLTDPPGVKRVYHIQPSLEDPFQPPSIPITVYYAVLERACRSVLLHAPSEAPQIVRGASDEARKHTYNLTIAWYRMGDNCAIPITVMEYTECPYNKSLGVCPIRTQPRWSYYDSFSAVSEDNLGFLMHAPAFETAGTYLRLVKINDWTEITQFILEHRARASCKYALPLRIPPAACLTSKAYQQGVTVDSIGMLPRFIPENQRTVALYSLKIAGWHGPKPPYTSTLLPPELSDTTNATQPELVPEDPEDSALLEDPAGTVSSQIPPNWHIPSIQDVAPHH

human IgG1 monoclonal antibody HSV8
lowest concentration with robust binding: 3 nM
